Data as given in patent publication US20250152742A1, “COMPOSITIONS AND METHODS FOR NEUROLOGICAL DISEASES” (Trames Bio, Inc., priority 2022, published 2025).

System: engineered chimeric receptor SEQ ID NO: 33 and its mutants (human α7-nAChR ligand binding domain / human GlyRα1 ion pore domain) in Lenti-X 293T cells
Test: YFP fluorescence quenching anion reporter plate reader assay (percent quench, EC50)
Format: cell-based
Conditions: for YFP fluorescence quenching using CNL001 (percent quench): receptor named in row; for YFP fluorescence quenching using Varenicline, 3 nM var: ligand Varenicline 3 nM; for YFP fluorescence quenching using Varenicline, 30 nM var: ligand Varenicline 30 nM; for YFP fluorescence quenching using Varenicline, 300 nM var: ligand Varenicline 300 nM; for YFP fluorescence quenching using Varenicline, 500 nM var: ligand Varenicline 500 nM; for YFP fluorescence quenching using Varenicline, 1 uM var: ligand Varenicline 1 uM
Procedure, shortened: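 Lenti-X 293T cells co-expressing an anion-quenchable YFP were transiently transfected with receptor DNA, then ligand was added in NaI-substituted buffer (pH 7.2) after 30 min at 37 °C. Fluorescence was read about 2 min; percent quench = mean of last 10 s over 15 s pre-ligand baseline.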

B1: CODA405: engineered receptor: Y210V in SEQ ID NO: 33 (protein)
chain: MRCSPGGVWLALAASLLHVSLQGEFQRKLYKELVKNYNPLERPVANDSQPLTVYFSLSLLQIMDVDEKNQVLTTNIWLQMSWTDHYLQWNVSEYPGVKTVRFPDGQIWKPDILLYNSADERFDATFHTNVLVNSSGHCQYLPPGIFKSSCPMDLKNFPMDVQTCKLKFGSWSYGGWSLDLQMQEADISGYIPNGEWDLVGIPGKRSERFVECCKEPYPDVTFTVTMRRRMGYYLIQMYIPSLLIVILSWISFWINMDAAPARVGLGITTVLTMTTQSSGSRASLPKVSYVKAIDIWMAVCLLFVFSALLEYAAVNFVSRQHKELLRFRRKRRHHKSPMLNLFQEDEAGEGRFNFSAYGMGPACLQAKDGISVKGANNSNTTNPPPAPSKSPEEMRKLFIQRAKKIDKISRIGFPMAFLIFNMFYWIIYKIVRREDVHNQ
modifications: synthetic sequence of chimeric LGIC
YFP fluorescence quenching using CNL001 (percent quench) (1 nM CNL001, first column so headed): −16.246% | YFP fluorescence quenching using CNL001 (percent quench) (1 nM CNL001, second column so headed): −4.217% | YFP fluorescence quenching using TC-5619/Bradanicline (percent quench) (3 nM brd (TC-5619/Bradanicline)): 9.92% | YFP fluorescence quenching using CNL001 (percent quench) (10 nM CNL001, first column so headed): −6.142% | YFP fluorescence quenching using CNL001 (percent quench) (10 nM CNL001, second column so headed): −10.003% | YFP fluorescence quenching using TC-5619/Bradanicline (percent quench) (30 nM brd (TC-5619/Bradanicline)): 4.37% | YFP fluorescence quenching using CNL001 (percent quench) (50 nM CNL001, first column so headed): −11.054% | YFP fluorescence quenching using CNL001 (percent quench) (50 nM CNL001, second column so headed): −10.06% | YFP fluorescence quenching using ABT-126 (percent quench) (50 nM abt (ABT-126)): −2.9% | YFP fluorescence quenching using CNL001 (percent quench) (100 nM CNL001, first column so headed): −3.832% | YFP fluorescence quenching using CNL001 (percent quench) (100 nM CNL001, second column so headed): −3.784% | YFP fluorescence quenching (percent quench) (100 nM CNL002): −14.3% | YFP fluorescence quenching using ABT-126 (percent quench) (100 nM abt (ABT-126)): −2.06% | YFP fluorescence quenching using AZD-0328 (percent quench) (100 nM azd0328): −8.13% | YFP fluorescence quenching using ABT-126 (percent quench) (300 nM abt (ABT-126)): −0.19% | YFP fluorescence quenching using AZD-0328 (percent quench) (300 nM azd0328): −3.35% | YFP fluorescence quenching using TC-5619/Bradanicline (percent quench) (300 nM brd (TC-5619/Bradanicline)): 59% | YFP fluorescence quenching using CNL001 (percent quench) (1 uM CNL001, first column so headed): 1.129% | YFP fluorescence quenching using CNL001 (percent quench) (1 uM CNL001, second column so headed): 7.1% | YFP fluorescence quenching (percent quench) (1 uM CNL002): −7.56% | YFP fluorescence quenching using ABT-126 (percent quench) (1 uM abt (ABT-126)): −3.64% | YFP fluorescence quenching (percent quench) (10 uM ach (acetylcholine)): −6.31% | YFP fluorescence quenching (percent quench) (30 uM CNL002): −2.02% | YFP fluorescence quenching using AZD-0328 (percent quench) (30 uM azd0328): −2.86% | YFP fluorescence quenching (percent quench) (100 uM ach (acetylcholine)): −14.48% | YFP fluorescence quenching (percent quench) (1 mM ach (acetylcholine)): −2.82% | YFP fluorescence quenching (percent quench) (3 mM ach (acetylcholine)): 1.06% | YFP fluorescence quenching using Facinicline, 30 nM fac (ligand Facinicline 30 nM): −26.25 | YFP fluorescence quenching using Facinicline, 300 nM fac (ligand Facinicline 300 nM): −23.52 | YFP fluorescence quenching using Facinicline, 30 uM fac (ligand Facinicline 30 uM): 0.83 | YFP fluorescence quenching using TC-6987, 1 uM tc6987 (ligand TC-6987 1 uM): −22.63 | YFP fluorescence quenching using TC-6987, 10 uM tc6987 (ligand TC-6987 10 uM): −23.03 | YFP fluorescence quenching using TC-6987, 500 uM tc6987 (ligand TC-6987 500 uM): −40.88 | YFP fluorescence quenching using Varenicline, 3 nM var (first column): 7.317 | YFP fluorescence quenching using Varenicline, 3 nM var (second column): 7.643 | YFP fluorescence quenching using Varenicline, 30 nM var (first column): 9.457 | YFP fluorescence quenching using Varenicline, 30 nM var (second column): 9.134 | YFP fluorescence quenching using Varenicline, 300 nM var (first column): 15.503 | YFP fluorescence quenching using Varenicline, 300 nM var (second column): 11.954 | YFP fluorescence quenching using Varenicline, 500 nM var (first column): 13.427 | YFP fluorescence quenching using Varenicline, 500 nM var (second column): 10.784 | YFP fluorescence quenching using Varenicline, 1 uM var (first column): 9.032 | YFP fluorescence quenching using Varenicline, 1 uM var (second column): 11.591
